# Test: soluble on expression in E. coli; label from the status in PepcDB or PDB records
row,Sequence,soluble on expression in E. coli
1,MTTNNDFYFALLRISILQLLKAQGFDRARPSLVDVMTDLYAKFLSLLASEVSSIAQARCDQDDTIALQDITLALENLGIVKPTNVLDVYDENSELSSSRGMEKFKDWCIYSTQLTDARITALPTVELLQSEEKESDPLSAIPDYLNQLLQNKGAKQKLETKNRKTELIEDLINNNGLDDWIKLVIARQRINMIERASKKESQNVPALPHIAGYKSSILSRHHHTTITNEDRMPSAMTPRDEDALTEIQENPFVTSKLPIMRKENRLENITLSFEDEELESLGEVEGPNQKSQENNNEESFKENNKSLTESPHGDDRDISMFQFDSNVDTKWAEQEDMDSTFQRRTSLDYGGYF,not soluble
2,MTTPLKKIVIVGGGAGGLEMATQLGHKLGRKKKAKITLVDRNHSHLWKPLLHEVATGSLDEGVDALSYLAHARNHGFQFQLGSVIDIDREAKTITIAELRDEKGELLVPERKIAYDTLVMALGSTSNDFNTPGVKENCIFLDNPHQARRFHQEMLNLFLKYSANLGANGKVNIAIVGGGATGVELSAELHNAIKQLHSYGYKGLTNEALNVTLVEAGERILPALPPRISAAAHNELTKLGVRVLTQTMVTSADEGGLHTKDGEYIEADLMVWAAGIKAPDFLKDIGGLETNRINQLVVEPTLQTTRDPDIYAIGDCASCPRPEGGFVPPRAQAAHQMATCAMNNILAQMNGKPLKNYQYKDHGSLVSLSNFSTVGSLMGNLTRGSMMIEGRIARFVYISLYRMHQIALHGYFKTGLMMLVGSINRVIRPRLKLH,not soluble
3,MTTPSMEMYIEQIYMLIEEKGYARVSDIAEALAVHPSSVTKMVQKLDKDEYLIYEKYRGLVLTSKGKKIGKRLVYRHELLEQFLRIIGVDEEKIYNDVEGIEHHLSWNSIDRIGDLVQYFEEDDARKKDLKSIQKKTEHHNQ,soluble
4,MTTSALPRQAFGEMADTVILLEKATTTPICEGMNRLLASFQALYLQYQKHHFVVEGAEFYPLHQFFQDCYEQVQDHVHALGERLNGLGGVPVAGFQQLAALCCFTPEPEGAFNCRQMLSNDLQAEQAIIGVLRQQATQAESLGDRATAYLYDQILLKTEERAYHIGHFLANDSLKVLKVKLADGREHHHHHH,soluble
5,MTTSIWKKLVTAVRGGASEVGESIADANAIRILDQEIRDADNALVKARDGLITIKAKHKLSAQRLEEHATSIANWEGRAMQALNKGEEALAVECASKIAEIEALRDQEQELADQFGKQVSLLQEQVIKAESRIKSLKQQVEMAKARETVQRARVATATATGGASGSVETAVGSLARLKQRQDEQDAKLEAAEELASQSSGSDLERRLQDAGIGAKSGGAQDVLARLKAKNQTPAQLEHHHHHH,not soluble
6,MTVAVIGAHGGIGRRLLPRLNEAGHDPIGVVRSEDQFAAIRDRGAEPRLGDLEGEVASALDGADAVVFTAGAGGSTGWDKTILVDLWGAERAVHACEEKEIDRFVMVSSRGAGDPESRQGPIKPYIVAKHVADRTLQRSSLDETILRPTRLTDAEGTGRVAAYVDTDPDAGDPIPRADVAQAVVQCLADDNTVGHAITLYGGDTPIGEALRPSGLEHHHHHH,not soluble
7,MTVGLGMPQPPAPTLAPRRATRQLMVGNVGVGSDHPVSVQSMCTTKTHDVNSTLQQIAELTAAGCDIVRVACPRQEDADALAEIARHSQIPVVADIHFQPRYIFAAIDAGCAAVRVNPGNIKEFDGRVGEVAKAAGAAGIPIRIGVNAGSLDKRFMEKYGKATPEALVESALWEASLFEEHGFGDIKISVKHNDPVVMVAAYELLAARCDYPLHLGVTEAGPAFQGTIKSAVAFGALLSRGIGDTIRVSLSAPPVEEVKVGNQVLESLNLRPRSLEIVSCPSCGRAQVDVYTLANEVTAGLDGLDVPLRVAVMGCVVNGPGEAREADLGVASGNGKGQIFVRGEVIKTVPEAQIVETLIEEAMRLAAEMGEQDPGATPSGSPIVTVS,soluble
8,MTVSSHRLELLSPARDAAIAREAILHGADAVYIGGPGFGARHNASNSLKDIAELVPFAHRYGAKIFVTLNTILHDDELEPAQRLITDLYQTGVDALIVQDMGILELDIPPIELHASTQCDIRTVEKAKFLSDVGFTQIVLARELNLDQIRAIHQATDATIEFFIHGALCVAYSGQCYISHAQTGRSANRGDCSQACRLPYTLKDDQGRVVSYEKHLLSMKDNDQTANLGALIDAGVRSFKIEGRYKDMSYVKNITAHYRQMLDAIIEERGDLARASSGRTEHFFVPSTEKTFHRGSTDYFVNARKGDIGAFDSPKFIGLPVGEVVKVAKDHLDVAVTEPLANGDGLNVLIKREVVGFRANTVEKTGENQYRVWPNEMPADLHKIRPHHPLNRNLDHNWQQALTKTSSERRVAVDIELGGWQEQLILTLTSEEGVSITHTLDGQFDEANNAEKAMNNLKDGLAKLGQTLYYARDVQINLPGALFVPNSLLNQFRREAADMLDAARLASYQRGSRKPVADPAPVYPQTHLSFLANVYNQKAREFYHRYGVQLIDAAYEAHEEKGEVPVMITKHCLRFAFNLCPKQAKGNIKSWKATPMQLVNGDEVLTLKFDCRPCEMHVIGKIKNHILKMPLPGSVVASVSPDELLKTLPKRKG,soluble
9,MTVTSMLDNVLRIATRQSPLALWQAHYVKDALMATHPGLTVELVPMVTRGDVILDTPLAKVGGKGLFVKELEIALLEKRADIAVHSMKDVPVAFPDGLGLVTICEREDPRDAFVSNKYHSLDDLPAGSIVGTSSLRRQCQLAERRPDLIIRSLRGNVGTRLGKLDNGDYDAIILAVAGLKRLGLESRIRTALPPDVSLPAVGQGAVGIECRLDDARTQALLAPLNHSQTALRVTAERAMNTRLEGGCQVPIGSYAEIINGEIWLRALVGAPDGSVMVRGERRGSPEQAEQMGISLAEELLENGARAILTEVYNGETPA,not soluble
10,MTWQVQRRKWKLNLIAELESRVLAEPVPLPADPMELKNLEYRPVKVRGCFDHSKELYMMPRTMVDPVREAREGGLISSSTQSGAYVVTPFHCTDLGVTILVNRGFVPRKKVNPETRQKGQIEGEVDLIGMVRLTETRQPFVPENNPERNHWHYRDLEAMARITGAEPIFIDANFQSTVPGGPIGGQTRVTLRNEHLQYIVTWYGLSAATSYLWFKKFLRGTPGV,not soluble
11,MTYDSEFGSHVSLYRDRIKQVIDDSLNEHLNSMILRVDLHDPIDTENMDNPFFQPRVDSGAISRFTSALKAKLKHDKHIKTQRKDWPDSRHSTLRYAWVREYTKNRKRHYHLILCFNQDAYYHLGDYDLNRNTLRTMITTAWYSALGIPIDSSGKLVNYPPNGKYLLNRKRDNFEQTYSDLMNRVDYMTKVRTKIVGDGDRNFGCSRG,soluble
12,MTYGIVIVSHSPEIASGLKKLIREVAKNISLTAIGGLENGEIGTSFDRVMNAIEENEADNLLTFFDLGSARMNLDLVSEMTDKELTIFNVPLIEGAYTASALLEAGATFEAIKEQLEKMLIEKRSHHHHHH,soluble
13,MTYTLAILGCGVMGQALLSAIYNAPKAADETAAAFYPSKIITCNHDEPSAQQVTDLVETFDESPNGIKVESTYGHNVSAVEEASVVLLGTKPFLAEEVLNGVKSVIGGKLLISLAAGWTIDQLSQYTSTVCRVMTNTPAKYGYGCAVVSYSADVSKEQKPLVNELISQVGKYVELPEKNMDAATALVGSGPAFVLLMLESLMESGLKLGIPLQESKECAMKVLEGTVKMVEKSGAHPSVLKHQVCTPGGTTIAGLCVMEEKGVKSGIINGVEEAARVASQLGQKKK,soluble
14,MVAATSQNTFDSPRSPLYNFTMDIRPLSDVAGVILVGGRSRRMGRDKALIPLGGKPLVERVIDAFRPLFERILLVGDRGERFASYGLPVFPDIHPGSALGGLYTGLVRAGTPHVFVSACDVPWPDPRVIARLCSLREGFDVVVPRTVGGSEPLFAVYGTGCLPAMERMLREGNYRIYDFYPEVRTRYVEQAELADLVTPARTFVNVNTPEEFETIRNREEGMAIKAVSFVAKSGTGKTTLLEKVIAELKGRGYRIGVIKHDAHRFDIDHPGKDSHRLAAAGADTMLIASPEKLALVKKYDESPPLDELLATYFGDVDIVLTEGFKKSSLPKIEVHRMERSATLLCRGEEHDPTLVAVASDAALALDVPVFDLNNPAQVADFVERTFLAAGAALEHHHHHH,soluble
15,MVAKKWVYYFGGGNADGNKNMKELLGGKGANLAEMVNLGIPVPPGFTITTEACKTYQETETIPQEVADQVRENVSRVEKEMGAKFGDPANPLLFSVRSGAAASMPGMMDTVLNLGLNKVTVDAWVRRAPRLERFVYDSYRRFITMYADIVMQVGREDFEEALSRMKERRGTKFDTDLTASDLKELCDGYLELFELKTGCSFPQDPVMQLFAAIKAVFRSWGNPRATIYRRMNNITGLLGTAVNVQAMVFGNINDRSATGVAFSRSPSTGENFFFGEYLVNAQGEDVVAGIRTPQQINHSLSLRWAKAHGVGEEERRKRYPSMEEAMPENYRLLCDVRKRLENHYRDMQDLEFTVQDGRLWLLQCRNGKRTIHAAVRIAIDMVNEGLISREEAVLRIDPYQVDHLMHPNLEPGAEKANKPIGRGLAASPGAAVGQVVFDAESAKEWSGRGKKVIMVRLETSPEDLAGMDAACGILTARGGMTSHAAVVARGMGKCCVSGCGDMVIRGKSFKLNGSVFREGDYITIDGSKGLIYAGKLKLRSPDLKGSFQTILQWCQEMKRLGVRTNADTPADAAKARSFGAEGVGLCRTEHMFFEGSRINFIREMILADSASGRKAALDKLLPIQRADFVGILRAMRGLPVTIRLLDPPLHEFVPHDAAAQFELAQKLGMPAEKVRNRVNALHELNPMLGHRGCRLGITYPEIYNMQVRAIIEAAIAVSEEGSSVIPEIMVPLVGKKEELSLIREEVVKTAEAVITKSGKRVHYTVGTMIEVPRAAVTADSIAQKADFFSFGTNDLTQMGCGFSRDDAGPFLRHYGNLGIYAQDPFQSIDQEGIGELVRIAVTKGRRVKPMLKMGICGEHGGDPATIGFCHKVGLDYVSCSPFRVPVAIVAAAHASIKDRRAAMKARKGFAAKL,soluble
16,MVARNDNLKPFSERSVDEARELGRKGGKASGEVRRKKADLKRAISIVLSSEVPSSKMAKTLKEMGYENTNEMAMVLSMTQKAIKGDVKAASWISNIIQPAKVEHEVEMSVGVDEKRKVAEEYIRGLFNNDTGNSTEENN,not soluble
17,MVATAKYGTPVIDGEIDEIWNTTEEIETKAVAMGSLDKNATAKVRVLWDENYLYVLAIVKDPVLNKDNSNPWEQDSVEIFIDENNHKTGYYEDDDAQFRVNYMNEQTFGTGGSPARFKTAVKLIEGGYIVEAAIKWKTIKPTPNTVIGFNIQVNDANEKGQRVGIISWSDPTNNSWRDPSKFGNLRLIK,soluble
18,MVDLGFSLYPERYDVTKSKAYIDLCHSYGAKRLFMSLLQLAPADHQMFHCYAELIAYANQLGIRVIADVSPSFISQAGWSDQLIERAHAFGLAGLRLDEALPLAEIVTLTRNPFGLKIELNMSTDKQLLMSLLATDAERSNIIGCHNFYPHEFTGLSWQHFKDMSRFYHEHDIETAAFITAQSASEGPWLLAEGLPTVEDHRHLPIGLQVELMKAIGTIDNILISNQFISEEELAACTQALARPVTTIKVRPIIDLTEVEEQIIGYPHCYRGDVSDYVIRSTMPRLVYAQESIAPRDQSKEVKRGSIIIDNDRYHRYKGELQIALKNFTVSSKANVVAEVREDYLSLLDDLRPWQEFCLEIAPS,not soluble
19,MVDNTSLSFEQIADFCGLHPLEVRGIADGEVARDIRGADPIGNGQLNREELDRAQANPDYRMKALVSRHAELLKPAKKAPRYTPVSRRQDRPDAIAWFLRHHPEVTDAQISKILGTTKATIEQVRARTHWNAANIKPVDPVTLGLVGQLELDALVKKAAEKKAKDDLKKGIVPEDPTLRPASEAGQFEPEVEEEEEDFRAPRGDLKAEDVFGKSTGYVDEEDEDLEHHHHHH,soluble

# Reference: the DeepSol protein solubility set
